Where a chain is given by its changes, count along the chain named. In names and notes the source's numbering stands. Several values for one entry are separate records, joined by “and”; a condition that tells them apart may be missing. Identical values can stand only once.
B1: FliF of the native flagellar basal body (native MS ring) (natural protein)
chain: MSATASTATQPKPLEWLNRLRANPRIPLIVAGSAAVAIVVAMVLWAKTPDYRTLFSNLSDQDGGAIVAQLTQMNIPYRFANGSGAIEVPADKVHELRLRLAQQGLPKGGAVGFELLDQEKFGISQFSEQVNYQRALEGELARTIETLGPVKSARVHLAMPKPSLFVREQKSPSASVTVTLEPGRALDEGQISAVVHLVSSAVAGLPPGNVTLVDQSGHLLTQSNTSGRDLNDAQLKFANDVESRIQRRIEAILSPIVGNGNVHAQVTAQLDFANKEQTEEHYSPNGDASKATLRSRQLNISEQVGAGYPGGVPGALSNQPAPPNEAPIATPPTNQQNAQNTPQTSTSTNSNSAGPRSTQRNETSNYEVDRTIRHTKMNVGDIERLSVAVVVNYKTLADGKPLPLTADQMKQIEDLTREAMGFSDKRGDTLNVVNSPFSAVDNTGGELPFWQQQSFIDQLLAAGRWLLVLVVAWILWRKAVRPQLTRRVEEAKAAQEQAQVRQETEEAVEVRLSKDEQLQQRRANQRLGAEVMSQRIREMSDNDPRVVALVIRQWMSNDHE
notes: source: endogenous, basal body purified from Salmonella HK1003 (sucrose density gradient); copies: 34
B2: FliF(L253A), overexpressed in E. coli (natural protein)
chain: B1 chain with L253A
notes: source: E. coli, overexpressed, MS rings purified
B3: FliF(V266A), overexpressed in E. coli (natural protein)
chain: B1 chain with V266A
notes: as for B2
B4: full-length Salmonella FliF (MS ring, dataset 1, from pKOT112) (natural protein)
chain: B1 chain
notes: also called MS ring formed by full-length FliF; FliF ring dataset 1; source: E. coli BL21 (DE3) carrying pKOT112, MS ring purified from the membrane fraction (sucrose gradient, LMNG); copies: 34
B5: FliF(V266R), overexpressed in E. coli (natural protein)
chain: B1 chain with V266R
notes: as for B2
B6: FliF(L253R), overexpressed in E. coli (natural protein)
chain: B1 chain with L253R
notes: as for B2
B7: FliF(I252R), overexpressed in E. coli (natural protein)
chain: B1 chain with I252R
notes: as for B2
B8: FliF(I252A), overexpressed in E. coli (natural protein)
chain: B1 chain with I252A
notes: as for B2
B9: full-length Salmonella FliF (MS ring, dataset 2, from pKOT105) (natural protein)
chain: B1 chain
notes: also called FliF overexpressed from another construct; FliF ring dataset 2; source: E. coli BL21 (DE3) carrying pKOT105, MS ring purified from the membrane fraction (sucrose gradient, LMNG); copies: 34
B10: FliF_(1-503) (domain or fragment)
chain: MSATASTATQPKPLEWLNRLRANPRIPLIVAGSAAVAIVVAMVLWAKTPDYRTLFSNLSDQDGGAIVAQLTQMNIPYRFANGSGAIEVPADKVHELRLRLAQQGLPKGGAVGFELLDQEKFGISQFSEQVNYQRALEGELARTIETLGPVKSARVHLAMPKPSLFVREQKSPSASVTVTLEPGRALDEGQISAVVHLVSSAVAGLPPGNVTLVDQSGHLLTQSNTSGRDLNDAQLKFANDVESRIQRRIEAILSPIVGNGNVHAQVTAQLDFANKEQTEEHYSPNGDASKATLRSRQLNISEQVGAGYPGGVPGALSNQPAPPNEAPIATPPTNQQNAQNTPQTSTSTNSNSAGPRSTQRNETSNYEVDRTIRHTKMNVGDIERLSVAVVVNYKTLADGKPLPLTADQMKQIEDLTREAMGFSDKRGDTLNVVNSPFSAVDNTGGELPFWQQQSFIDQLLAAGRWLLVLVVAWILWRKAVRPQLTRRVEEAKAAQEQAQVRQE
notes: also called C-terminally-truncated FliF fragment with 57 residues truncated; copies: 33
B11: FliG of the C ring of the native basal body (wild-type, CCW motor) (natural protein)
chain: MSNLSGTDKSVILLMTIGEDRAAEVFKHLSTREVQALSTAMANVRQISNKQLTDVLSEFEQEAEQFAALNINANEYLRSVLVKALGEERASSLLEDILETRDTTSGIETLNFMEPQSAADLIRDEHPQIIATILVHLKRSQAADILALFDERLRHDVMLRIATFGGVQPAALAELTEVLNGLLDGQNLKRSKMGGVRTAAEIINLMKTQQEEAVITAVREFDGELAQKIIDEMFLFENLVDVDDRSIQRLLQEVDSESLLIALKGAEPPLREKFLRNMSQRAADILRDDLANRGPVRLSQVENEQKAILLIVRRLAETGEMVIGSGEDTYV
notes: source: endogenous, basal body purified from Salmonella HK1003 (sucrose density gradient)

Tests used:
[1] = target: FliG ΔPAA of the C ring of the CW-locked basal body (Salmonella enterica serovar Typhimurium (in TM022)) (UniProt P0A1J9); test: cryo-EM structure; end-on view cryoEM images of the C ring of purified wild-type (CCW) and CW mutant basal bodies; rotational symmetry of single particles by autocorrelation and Fourier transformation (98 and 75 particles)
[2] = target: the molecule itself; test: cryo-EM structure; 2D class averages of end-on views of the basal body (rivet) purified from Salmonella HK1003; rotational symmetry by autocorrelation and Fourier transformation; assembly formed in cells, purified as a whole
[3] = target: the molecule itself; test: negative-stain EM; MS rings purified from E. coli cells overexpressing mutant variants of FliF, observed by negative staining EM
[4] = target: the molecule itself; test: cryo-EM structure; MS ring of full-length FliF (dataset 1, pKOT112) in Buffer S with 0.05% LMNG; 2D classes and 3D refinement with C34 symmetry, 3.7 Å
[5] = target: the molecule itself; test: cryo-EM structure; MS ring of full-length FliF (dataset 2, pKOT105); 3D refinement with C1, C11 and C34 symmetry (12, 9.0 and 7.4 Å)
[6] = target: the molecule itself; test: cryo-EM structure; rings of FliF_(1-503) and FliF_(1-456) in Buffer S with 0.1% Triton-X100; 3D classification and reconstruction with C1 symmetry
[7] = target: B1; test: cryo-EM structure; 2D class averages of end-on views of the basal body (rivet) purified from Salmonella HK1003; rotational symmetry by autocorrelation and Fourier transformation; assembly formed in cells, purified as a whole; conditions: both partners purified

FliG ΔPAA of the C ring of the CW-locked basal body (from UniProt P0A1J9 1-331) (natural protein)
stoichiometry N [1]: 33 -fold to 36 -fold (2×) and 34 -fold

B1
stoichiometry N [2]: 34 subunits

B2
binding result [3]: binds

B3
binding result [3]: binds

B4
stoichiometry N [4]: 34 subunits

B5
binding result [3]: binds

B6
binding result [3]: binds

B7
binding result [3]: binds

B8
binding result [3]: binds

B9
stoichiometry N [5]: 34 subunits

B10
stoichiometry N [6]: 33 -fold

B11
binding result [7]: binds

From article PMC8270960, “Native flagellar MS ring is formed by 34 subunits with 23-fold and 11-fold subsymmetries” (Nature Communications, 2021)
